Earlier results, collected in patent US9914774B2, “Notch pathway inhibition” (Genentech, Inc., priority 2014, dated 2018).
Where two headings read alike, the source gives them in different places.

What was measured:
[1] = Phase 1a, patients with solid tumors
[2] = first-in-human phase I, advanced solid tumors

Molecule | patients experienced diarrhea [1] [%] | patients experiencing grade 3 or higher diarrhea [1] [%] | patients experienced diarrhea [2] [%]
59R5: anti-Notch antibody 59R5, described in U.S. Pat. No. 7,919,092 | 58 | 14 | –
52M51: anti-Notch1 antibody 52M51, described in U.S. Pat. No. 8,435,513 (antibody, chains of the INN, looked up, V domains shown) VH: QVQLVQSGAEVKKPGASVKISCKVSGYTLRGYWIEWVRQAPGKGLEWIGQILPGTGRTNYNEKFKGRVTMTADTSTDTAYMELSSLRSEDTAVYYCARFDGNYGYYAMDYWGQGTTVTVSS VL: QAVVTQEPSLTVSPGGTVTLTCRSSTGAVTTSNYANWFQQKPGQAPRTLIGGTNNRAPGVPARFSGSLLGGKAALTLSGAQPEDEAEYYCALWYSNHWVFGGGTKLTVL | – | – | 64
